Series [1] deals with T1, full-length HSV-1 ICP8 with an N-terminal 8xHis tag (HSV-1, UniProt P04296 1-1196).
T1 construct: also called His-tagged ICP8; source: insect cells (baculovirus, as UL9^FL), purified (Ni-NTA); not shown: 8xHis, N-terminal, kept
T1 sequence: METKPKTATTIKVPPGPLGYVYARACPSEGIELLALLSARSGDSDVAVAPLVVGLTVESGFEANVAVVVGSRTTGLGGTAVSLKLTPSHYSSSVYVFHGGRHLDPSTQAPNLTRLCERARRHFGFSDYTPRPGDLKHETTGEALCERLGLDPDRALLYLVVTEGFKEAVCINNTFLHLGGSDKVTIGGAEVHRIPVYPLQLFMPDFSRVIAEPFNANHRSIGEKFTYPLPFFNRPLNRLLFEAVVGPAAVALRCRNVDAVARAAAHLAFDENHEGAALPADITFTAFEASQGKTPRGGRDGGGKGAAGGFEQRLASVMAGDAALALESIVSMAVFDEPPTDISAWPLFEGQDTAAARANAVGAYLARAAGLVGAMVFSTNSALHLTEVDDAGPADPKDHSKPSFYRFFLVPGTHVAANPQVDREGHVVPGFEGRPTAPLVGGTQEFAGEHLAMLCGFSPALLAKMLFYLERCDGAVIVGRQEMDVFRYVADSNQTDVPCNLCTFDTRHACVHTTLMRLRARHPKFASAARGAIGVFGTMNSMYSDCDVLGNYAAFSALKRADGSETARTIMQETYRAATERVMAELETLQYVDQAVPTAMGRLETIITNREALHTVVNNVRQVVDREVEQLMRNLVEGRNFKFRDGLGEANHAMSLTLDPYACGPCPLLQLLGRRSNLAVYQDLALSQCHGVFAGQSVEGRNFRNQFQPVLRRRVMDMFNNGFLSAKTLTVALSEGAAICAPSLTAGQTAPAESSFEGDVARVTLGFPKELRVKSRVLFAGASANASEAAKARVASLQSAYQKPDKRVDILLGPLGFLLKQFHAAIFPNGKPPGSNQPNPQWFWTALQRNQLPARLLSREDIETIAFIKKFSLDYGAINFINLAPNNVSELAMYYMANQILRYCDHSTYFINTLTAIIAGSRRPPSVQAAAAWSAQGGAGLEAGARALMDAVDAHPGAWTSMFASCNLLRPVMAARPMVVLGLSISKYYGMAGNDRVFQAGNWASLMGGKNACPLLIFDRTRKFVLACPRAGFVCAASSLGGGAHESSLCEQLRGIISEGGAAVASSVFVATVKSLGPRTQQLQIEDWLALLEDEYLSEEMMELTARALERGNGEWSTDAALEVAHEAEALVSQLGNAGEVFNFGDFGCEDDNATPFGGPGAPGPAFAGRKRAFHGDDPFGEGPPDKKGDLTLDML
The experiment in a line: pull-down; Strep-tag pull-down: 50 μg Strep-tagged UL9^CTD or full-length UL9 as bait with an equal amount of ICP8; 50 mM Tris pH 8.0, 150 mM NaCl, 1 mM DTT, 0.05% Tween-20; 1 h at 4 °C; SDS-PAGE with Coomassie. The note with it: both partners purified.

For series [2], the target named is T1, full-length HSV-1 ICP8 with an …. The experiment in a line: pull-down; GST pull-down: 50 μg GST-tagged UL9^CTD variants or C-tail peptides on GST beads with an equal amount of ICP8; 50 mM Tris pH 8.0, 150 mM NaCl, 1 mM DTT, 0.05% Tween-20; 1 h at 4 °C; SDS-PAGE with Coomassie. The note with it: both partners purified.
The next series concerns the target UL9CTD wild type (HSV-1, UniProt P10193 536-851). The experiment in a line: MST; MST: 50 mM Tris pH 8.0, 150 mM NaCl, 1 mM DTT, 0.05% Tween-20, 40 nM FAM-dsDNA, 25 C; EMSA: 50 mM Tris pH 8.0, 50 mM NaCl, 1 mM DTT, 40 nM FAM-dsDNA, 0.5-3.5 uM protein, 4 C; cryo-EM complex: 20 mM HEPES pH 7.0, 150 mM NaCl, 1 mM DTT. As to conditions: protein: recombinant; tags: N-terminal 8xHis; blunt.

B1: Strep-tagged UL9 C-terminal domain (residues 536-851) (domain or fragment)
chain: PEASLPAQAAETEEVGLFVEKYLRSDVAPAEIVALMRNLNSLMGRTRFIYLALLEACLRVPMATRSSAIFRRIYDHYATGVIPTINVTGELELVALPPTLNVTPVWELLCLCSTMAARLHWDSAAGGSGRTFGPDDVLDLLTPHYDRYMQLVFELGHCNVTDGLLLSEEAVKRVADALSGCPPRGSVSETDHAVALFKIIWGELFGVQMAKSTQTFPGAGRVKNLTKQTIVGLLDAHHIDHSACRTHRQLYALLMAHKREFAGARFKLRVPAWGRCLRTHSSSANPNADIILEAALSELPTEAWPMMQGAVNFSTL
notes: HSV-1 UL9 C-terminal domain, residues 536-851; As the His-tagged construct, with the N-terminal 8xHis tag replaced by a Strep-tag; also called UL9^CTD; Strep-tagged UL9^CTD; source: E. coli BL21 (DE3), purified (Strep-Tactin XT, Superdex 75); not shown: Strep-tag, N-terminal, kept
In the case of B1, the binding result in series [1] was “binds”.

B2: GST-tagged UL9 C-terminal domain (residues 536-851) (domain or fragment)
chain: PEASLPAQAAETEEVGLFVEKYLRSDVAPAEIVALMRNLNSLMGRTRFIYLALLEACLRVPMATRSSAIFRRIYDHYATGVIPTINVTGELELVALPPTLNVTPVWELLCLCSTMAARLHWDSAAGGSGRTFGPDDVLDLLTPHYDRYMQLVFELGHCNVTDGLLLSEEAVKRVADALSGCPPRGSVSETDHAVALFKIIWGELFGVQMAKSTQTFPGAGRVKNLTKQTIVGLLDAHHIDHSACRTHRQLYALLMAHKREFAGARFKLRVPAWGRCLRTHSSSANPNADIILEAALSELPTEAWPMMQGAVNFSTL
notes: HSV-1 UL9 C-terminal domain, residues 536-851; Cloned into pGEX-6P-1; also called UL9^CTD; source: E. coli BL21 (DE3), purified (Glutathione-Sepharose 4B); not shown: GST, N-terminal, kept
Regarding B2, the binding result in series [2] is listed as “binds”.

B3: 15-bp oriS Box I dsDNA (dsDNA)
DNA 1: GCGTTCGCACTTCGT
DNA 2: ACGAAGTGCGAACGC
Regarding B3, the dissociation constant Kd with UL9CTD wild type came to 2230 ± 420 nM.

These data come from paper PMC13483431, “Structure and mechanism of the HSV-1 origin-binding protein UL9” (Journal of Virology, 2025).
